# Results taken from patent publication US20240390460A1 (Regeneron, published 2024).
# T1: Human IL2RG (interleukin-2 receptor subunit gamma), wild type (human, UniProt P31785 23-369)
# T1 construct: also called wild type human IL2RG; WT IL2RG
# T1 sequence: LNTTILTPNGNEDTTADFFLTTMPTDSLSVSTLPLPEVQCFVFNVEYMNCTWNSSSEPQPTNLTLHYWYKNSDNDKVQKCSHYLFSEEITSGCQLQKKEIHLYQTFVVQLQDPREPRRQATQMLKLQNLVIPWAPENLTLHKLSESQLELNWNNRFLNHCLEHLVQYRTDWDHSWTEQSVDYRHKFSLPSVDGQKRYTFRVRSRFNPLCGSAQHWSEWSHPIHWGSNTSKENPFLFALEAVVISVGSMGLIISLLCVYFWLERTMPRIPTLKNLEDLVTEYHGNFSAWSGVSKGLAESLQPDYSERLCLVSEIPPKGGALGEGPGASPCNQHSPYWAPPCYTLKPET
# T2: murine Il2rg (murine, UniProt P34902 23-369)
# T2 construct: whole, on cells; also called mouse IL2RG; murine IL2rg receptor
# T2 sequence (looked up): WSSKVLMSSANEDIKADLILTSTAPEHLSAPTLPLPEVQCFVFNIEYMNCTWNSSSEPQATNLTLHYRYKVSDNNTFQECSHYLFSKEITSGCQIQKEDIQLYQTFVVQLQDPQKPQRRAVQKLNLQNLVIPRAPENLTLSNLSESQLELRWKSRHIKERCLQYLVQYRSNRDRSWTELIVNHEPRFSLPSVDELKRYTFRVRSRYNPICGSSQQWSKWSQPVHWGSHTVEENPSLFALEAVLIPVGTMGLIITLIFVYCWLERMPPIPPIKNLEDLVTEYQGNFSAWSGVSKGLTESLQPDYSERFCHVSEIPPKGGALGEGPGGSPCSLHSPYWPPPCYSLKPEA
# T3: recombinant human IL2RG extracellular domain (human, UniProt P31785 23-262)
# T3 construct: also called IL2RG ectodomain; ECD
# T3 sequence: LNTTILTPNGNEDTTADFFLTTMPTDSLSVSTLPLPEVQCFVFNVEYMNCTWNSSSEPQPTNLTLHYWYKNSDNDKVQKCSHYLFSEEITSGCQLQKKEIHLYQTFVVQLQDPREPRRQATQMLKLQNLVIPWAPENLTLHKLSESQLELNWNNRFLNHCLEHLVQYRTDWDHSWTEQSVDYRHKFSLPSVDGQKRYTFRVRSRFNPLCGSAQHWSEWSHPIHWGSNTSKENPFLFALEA
# Key:
# [1] = target: T1, Human IL2RG (interleukin-2 receptor …); experiment: flow cytometry on iPSC-derived NK cells
# murine Il2rg = target: T2, murine Il2rg; experiment: stated in Example 1 for donor T cells of wild-type mice; no binding assay described
# [2] = target: T3, recombinant human IL2RG extracellular …; experiment: cryoEM of the complex
binding result [1],binding result (murine Il2rg),binding result [2],Binder
binds,no binding,–,"REGN7257 (antibody, human IgG4 S228P, kappa, V domains shown, also called H4H12889P; anti-IL2RG antibody) VH: EVQLVESGGGLVQPGGSLRLSCAASGFIFSSYEMHWVRQAPGKGLEWISYISSSGTTIYYADSVKGRFTISRDNAKNSLYLHMNSLRAEDTAVYYCTRARITGTFDVFDIWGQGTMVTVSS VL: DIQMTQSPSSLSASVGDRVTITCRASQSISSYLNWYQQKPGKAPKLLIFAASNLQSGVPSRFSGSRSGTDFTLTISSLQPEDFATYYCQQNYNIPYTFGQGTKLEIKR"
–,–,binds,"REGN7257 Fab region (Fab, V domains shown, Fab region of REGN7257 used for cryoEM) VH: EVQLVESGGGLVQPGGSLRLSCAASGFIFSSYEMHWVRQAPGKGLEWISYISSSGTTIYYADSVKGRFTISRDNAKNSLYLHMNSLRAEDTAVYYCTRARITGTFDVFDIWGQGTMVTVSS VL: DIQMTQSPSSLSASVGDRVTITCRASQSISSYLNWYQQKPGKAPKLLIFAASNLQSGVPSRFSGSRSGTDFTLTISSLQPEDFATYYCQQNYNIPYTFGQGTKLEIK"
